This is an account of results in US20160137740A1 (AstraZeneca / MedImmune, published 2016).

Assay [1] concerns the target T1, Recombinant human TNFRSF5 (CD40) (human, UniProt P25942 21-193).
T1 construct: Plate-adsorbed antigen of the ELISA
As to the kind of experiment: ELISA, plate coated with a dilution series of the recombinant TNFRSF protein [panel B]. As for the experimental part:
(§1) An eight point, two-fold dilution series of each recombinant human TNFRSF protein was prepared after dilution of stock proteins to 5 μg/mL in PBS. Subsequently, 50 μL of each antigen dilution was transferred in duplicate to wells of a Nunc 96-well MaxiSorp flat bottom plate, and incubated overnight at 4° C. to adsorb proteins to the plate. Afterwards, plates were washed three times with PBS in a BioTek® plate washer to remove unbound protein. Anti OX40 mAb29, 9B12, and control antibodies were diluted in PBS to a final concentration of 10 μg/mL, and 50 μL of mAb were added to each well and incubated at room temperature for one hour to bind mAb to plate-bound protein. Thereafter, wells were washed with PBS/Tween-20 0.1% (volume/volume) using a BioTek® plate washer. HRP conjugated goat anti-human or goat anti-mouse secondary antibodies at 10 μg/mL was added to each well and incubated at room temperature for 1 hour. After three washes in PBS/Tween-20 0.1%, 50 μL of TMB substrate was added to each well and incubated at room temperature for 5 minutes to develop the colorimetric product. Reactions were stopped by adding 50 μL of 0.5 molar H₂SO₄ to wells, and plates read immediately at 450 nm using an Envision C plate reader for detection of the colorimetric product.
For orientation: An ELISA detects its analyte on a solid surface through an enzyme-linked reagent.

In assay [2] the target is T2, Recombinant human TNFRSF1β (TNFRII) (human, UniProt P20333 23-257).
T2 construct: Plate-adsorbed antigen of the ELISA; also called TNFR2; TNFRSF1B
T2 sequence (looked up): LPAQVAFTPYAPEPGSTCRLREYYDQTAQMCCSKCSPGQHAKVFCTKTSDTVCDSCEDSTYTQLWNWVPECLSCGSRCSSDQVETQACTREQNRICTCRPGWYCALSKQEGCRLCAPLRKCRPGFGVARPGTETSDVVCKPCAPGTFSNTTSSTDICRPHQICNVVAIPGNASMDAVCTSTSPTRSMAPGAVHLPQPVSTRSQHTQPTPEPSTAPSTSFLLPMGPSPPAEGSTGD
The assay is described as above. As for the experimental part:
as §1

Assay [3] has as its target T3, Recombinant human TNFRSF14 (HVEM) (human, UniProt Q92956 39-202, limits assumed).
T3 construct: Plate-adsorbed antigen of the ELISA
T3 sequence (looked up): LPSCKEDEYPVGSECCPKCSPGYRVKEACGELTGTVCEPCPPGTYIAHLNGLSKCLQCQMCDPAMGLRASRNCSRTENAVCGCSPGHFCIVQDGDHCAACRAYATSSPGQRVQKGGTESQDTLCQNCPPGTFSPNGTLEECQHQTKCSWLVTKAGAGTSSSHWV
Described as above. As for the experimental part:
as §1

Assay [4] concerns the target T4, Recombinant human TNFRSF18 (GITR) (human, UniProt Q9Y5U5 26-162, limits assumed).
T4 construct: Plate-adsorbed antigen of the ELISA
T4 sequence (looked up): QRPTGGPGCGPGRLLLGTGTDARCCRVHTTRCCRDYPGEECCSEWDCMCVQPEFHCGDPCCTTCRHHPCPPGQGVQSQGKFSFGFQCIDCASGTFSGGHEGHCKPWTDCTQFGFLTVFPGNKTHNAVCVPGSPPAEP
The description is as above. The method, then: as §1

Assay [5] concerns the target T5, Recombinant human TNFRSF16 (NGFR) (human, UniProt P08138 29-250).
T5 construct: Plate-adsorbed antigen of the ELISA
T5 sequence (looked up): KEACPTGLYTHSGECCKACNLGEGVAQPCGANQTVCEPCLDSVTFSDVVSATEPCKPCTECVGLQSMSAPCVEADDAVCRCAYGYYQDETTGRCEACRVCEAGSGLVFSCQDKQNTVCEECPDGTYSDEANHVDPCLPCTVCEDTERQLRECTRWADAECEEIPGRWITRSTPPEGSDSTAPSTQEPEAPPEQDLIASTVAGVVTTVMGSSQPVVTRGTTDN
Described as above. The method, then: as §1

For the next assay, the target named is T6, Rhesus monkey OX40 (rhesus monkey).
T6 construct: also called rhesus macaque OX40
In words: flow cytometry, equilibrium binding to activated primary rhesus CD4+ T cells; mean of 2 experiments (StdErr).

Assay [6] addresses T7, KO_CRD3 (human OX40 aa 108 to 146 replaced with the mouse counterparts) (human; mouse, UniProt P43489 29-277).
T7 construct: Chimeric variant with a transmembrane domain, transient on 293F cells
T7 chain: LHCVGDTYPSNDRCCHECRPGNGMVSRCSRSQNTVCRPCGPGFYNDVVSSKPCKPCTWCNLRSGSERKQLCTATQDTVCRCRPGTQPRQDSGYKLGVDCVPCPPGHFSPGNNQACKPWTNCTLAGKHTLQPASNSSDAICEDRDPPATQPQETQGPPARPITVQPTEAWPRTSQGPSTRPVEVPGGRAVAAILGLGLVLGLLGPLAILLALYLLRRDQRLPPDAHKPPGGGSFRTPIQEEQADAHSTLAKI
In words: flow cytometry, transfected 293F cells, column KO_CRD3.

The target of the next assay is T8, Human OX40 (human, UniProt P43489 29-277).
T8 sequence: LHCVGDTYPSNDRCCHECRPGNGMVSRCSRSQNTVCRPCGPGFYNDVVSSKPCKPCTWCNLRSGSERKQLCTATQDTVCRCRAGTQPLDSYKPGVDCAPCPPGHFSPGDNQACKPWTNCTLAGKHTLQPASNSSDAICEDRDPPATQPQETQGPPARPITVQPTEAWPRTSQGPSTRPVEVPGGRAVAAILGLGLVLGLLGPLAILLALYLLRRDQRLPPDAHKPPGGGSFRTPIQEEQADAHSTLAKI
In words: cell-based or functional assay.

As usually defined, the Kd is the constant that tells how readily two partners part at equilibrium.

T1 sequence (P25942 21-193 limits assumed): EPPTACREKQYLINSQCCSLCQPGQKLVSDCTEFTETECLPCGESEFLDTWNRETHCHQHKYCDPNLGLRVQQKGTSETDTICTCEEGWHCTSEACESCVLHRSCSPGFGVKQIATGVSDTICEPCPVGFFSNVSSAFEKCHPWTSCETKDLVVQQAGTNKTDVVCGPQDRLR

B1: 9B12 (antibody, mouse IgG1, V domains shown)
VH: EVQLQESGPSLVKPSQTLSLTCSVTGDSFTSGYWNWIRKFPGNRLEYMGYISYNGITYHNPSLKSRISITRDTSKNHYYLQLNSVTTEDTATYFCARYRYDYDGGHAMDYWGQGTLVTVSS
VL: DIQMTQTTSSLSASLGDRVTISCRASQDISNYLNWYQQKPDGTVKLLIYYTSKLHSGVPSRFSGSGSRTDYSLTITDLDQEDIATYFCQQGSALPWTFGQGTKVEIKR
notes: mouse IgG1 kappa; also called murine mAb 9B12; mouse anti-human OX40 IgG1κ monoclonal antibody
As for B1, the binding result in assay [1], in assay [2], in assay [3], in assay [4], in assay [5] and in assay [6] was “no binding” in each case. Besides, binding in the assay with Rhesus monkey OX40 was characterised by a dissociation constant (Kd) of 0.713 nM. Besides, in the assay with Human OX40, the “EC50, CD4+ T cell proliferation, donor 367” value was 0.156 nM. Besides, the “EC50, CD4+ T cell proliferation, donor 645” value in the assay with Human OX40 was determined as 0.169 nM. Also, the “EC50, CD4+ T cell proliferation, donor 651” value in the assay with Human OX40 was 0.309 nM. Moreover, the “EC50, CD4+ T cell proliferation, donor 661” value with Human OX40 was determined as 0.237 nM.
